Experimental data from the supplement of paper PMC5998384.

System: HeLa Kyoto
Test: melting temperature (median over replicates), in situ; higher = more thermally stable
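Also: HeLa Kyoto cells synchronized by double thymidine or nocodazole block, proteins quantified by TMT10plex mass spectrometry, three independent biological replicates.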

Sequence | melting temperature (cell cycle stage: mitosis) | melting temperature (cell cycle stage: G1/S)
MKKTPVFLESLVTNMLRLRAICPFSWRVFQFRPISCEPLIIQMNKCTDEEQMFGFIERNKAILSEKQVGCAFDMLWKLQKQKTSLLKNAEYVRDHPQFLTLHNLATNKFKLMNDDTLVNVLYVTQQFAGEAHDPLVEALVTEAWRRLERFDIKLLSEFSSCLADQHLYFSPLMGKIADIVHRNLETTQDLSSLSVLMVNISSLISRHFQQQLVNKTELLFDTIDSSEVNVAKSIAKFLRNVRYRYQPLLERCNNVFLSNVDHLDLDSISKILSVYKFLQFNSFEFIIMAKKKLTEMIPLCNHPASFVKLFVALGPIAGPEEKKQLKSTMLLMSEDLTGEQALAVLGAMGDMESRNSCLIKRVTSVLHKHLDGYKPLELLKITQELTFLHFQRKEFFAKLRELLLSYLKNSFIPTEVSVLVRAISLLPSPHLDEVGISRIEAVLPQCDLNNLSSFATSVLRWIQHDHMYLDNMTAKQLKLLQKLDHYGRQRLQHSNSLDLLRKELKSLKGNTFPESLLEEMIATLQHFMDDINYINVGEIASFISSTDYLSTLLLDRIASVAVQQIEKIHPFTIPAIIRPFSVLNYDPPQRDEFLGTCVQHLNSYLGILDPFILVFLGFSLATLEYFPEDLLKAIFNIKFLARLDSQLEILSPSRSARVQFHLMELNRSVCLECPEFQIPWFHDRFCQQYNKGIGGMDGTQQQIFKMLAEVLGGINCVKASVLTPYYHKVDFECILDKRKKPLPYGSHNIALGQLPEMPWESNIEIVGSRLPPGAERIALEFLDSKALCRNIPHMKGKSAMKKRHLEILGYRVIQISQFEWNSMALSTKDARMDYLRECIFGEVKSCL [FASTKD1] | 49.9 °C | 
MEEKQILCVGLVVLDVISLVDKYPKEDSEIRCLSQRWQRGGNASNSCTVLSLLGAPCAFMGSMAPGHVADFLVADFRRRGVDVSQVAWQSKGDTPSSCCIINNSNGNRTIVLHDTSLPDVSATDFEKVDLTQFKWIHIEGRNASEQVKMLQRIDAHNTRQPPEQKIRVSVEVEKPREELFQLFGYGDVVFVSKDVAKHLGFQSAEEALRGLYGRVRKGAVLVCAWAEEGADALGPDGKLLHSDAFPPPRVVDTLGAGDTFNASVIFSLSQGRSVQEALRFGCQVAGKKCGLQGFDGIV [KHK] |  | 54.2 °C
MAEEEGPPVELRQRKKPKSSENKESAKEEKISDIPIPERAPKHVLFQRFAKIFIGCLAAVTSGMMYALYLSAYHERKFWFSNRQELEREITFQGDSAIYYSYYKDMLKAPSFERGVYELTHNNKTVSLKTINAVQQMSLYPELIASILYQATGSNEIIEPVYFYIGIVFGLQGIYVTALFVTSWLMSGTWLAGMLTVAWFVINRVDTTRIEYSIPLRENWALPYFACQIAALTGYLKSNLNTYGERFCYLLMSASTYTFMMMWEYSHYLLFLQAISLFLLDTFSVEQSDKVYEVYKIYIFSLFLGYLLQFENPALLVSPLLSLVAALMLAKCLQLNVKKGSFVAKIIKVINFYLVCTLTITLNIIMKMFVPHKENGHMLKFLEVKFGLNMTKNFTMNWLLCQESLQAPSQDFFLRLTQSSLLPFYILVLIICFLSMLQVIFRRINGKSLKETVTLEDGRIGERPEIIYHVIHTILLGSLAMVIEGLKYIWIPYVCMLAAFGVCSPELWMTLFKWLRLRTVHPILLALILSMAVPTIIGLSLWKEFFPRLMTELMELQEFYDPDTVELMTWIKRQAPVAAVFAGSPQLMGAIKLCTGWMVTSLPLYNDDDLLKRNENIYQIYSKRSAEDIYKILTSYKANYLIVEDAICNEVGPMRGCRVKDLLDIANGHMVCEEGDKLTYSKYGRFCHEVKINYSPYVNYFTRVYWNRSYFVYKINTVISFQS [DPY19L4] | 56.9 °C | 54.5 °C
MAAAELADTQLMLGVGLIEKDTNGEVLWVWCYPSTTATLRNLLLRKCCLTDENKLLHPFVFGQYRRTWFYITIIEVPDSSILKKVTHFSIVLTAKDFNPEKYAAFTRILCRMYLKHGSPVKMMESYIAVLTKGICQSEENGSFLSKDFDARKAYPAGSIKDIVSQFGMETVILHTALMLKKRIVVYHPKIEAVQEFTRTLPALVWHRQDWTILHSYVHLNADELEALQMCTGYVAGFVDLEVSNRPDLYDVFVNLAESEITIAPLAKEAMAMGKLHKEMGQLIVQSAEDPEKSESQVIQDIALKTREIFTNLAPFSEVSADGEKRVLNLEALKQKRFPPATENFLYHLAAAEQMLKI [FAM45BP] | 50.5 °C | 50.6 °C
MEALLLGAGLLLGAYVLVYYNLVKAPPCGGMGNLRGRTAVVTGANSGIGKMTALELARRGARVVLACRSQERGEAAAFDLRQESGNNEVIFMALDLASLASVRAFATAFLSSEPRLDILIHNAGISSCGRTREAFNLLLRVNHIGPFLLTHLLLPCLKACAPSRVVVVASAAHCRGRLDFKRLDRPVVGWRQELRAYADTKLANVLFARELANQLEATGVTCYAAHPGPVNSELFLRHVPGWLRPLLRPLAWLVLRAPRGGAQTPLYCALQEGIEPLSGRYFANCHVEEVPPAARDDRAAHRLWEASKRLAGLGPGEDAEPDEDPQSEDSEAPSSLSTPHPEEPTVSQPYPSPQSSPDLSKMTHRIQAKVEPEIQLS [DHRS13] | 50 °C | 
MGSRWSSEEERQPLLGPGLGPGLGASWRSREAAAAALPAAVPGPGRVYGRRWLVLLLFSLLAFVQGLVWNTWGPIQNSARQAYGFSSWDIALLVLWGPIGFLPCFAFMWLLDKRGLRITVLLTSFLMVLGTGLRCIPISDLILKRRLIHGGQMLNGLAGPTVMNAAPFLSTTWFSADERATATAIASMLSYLGGACAFLVGPLVVPAPNGTSPLLAAESSRAHIKDRIEAVLYAEFGVVCLIFSATLAYFPPRPPLPPSVAAASQRLSYRRSVCRLLSNFRFLMIALAYAIPLGVFAGWSGVLDLILTPAHVSQVDAGWIGFWSIVGGCVVGIAMARFADFIRGMLKLILLLLFSGATLSSTWFTLTCLNSITHLPLTTVTLYASCILLGVFLNSSVPIFFELFVETVYPVPEGITCGVVTFLSNMFMGVLLFFLTFYHTELSWFNWCLPGSCLLSLLLILCFRESYDRLYLDVVVSV [DIRC2] |  | 54.8 °C
MAPRGRKRKAEAAVVAVAEKREKLANGGEGMEEATVVIEHCTSURVYGRNAAALSQALRLEAPELPVKVNPTKPRRGSFEVTLLRPDGSSAELWTGIKKGPPRKLKFPEPQEVVEELKKYLS [C11ORF31] | 52.2 °C | 
MAAAAAGLGGGGAGPGPEAGDFLARYRLVSNKLKKRFLRKPNVAEAGEQFGQLGRELRAQECLPYAAWCQLAVARCQQALFHGPGEALALTEAARLFLRQERDARQRLVCPAAYGEPLQAAASALGAAVRLHLELGQPAAAAALCLELAAALRDLGQPAAAAGHFQRAAQLQLPQLPLAALQALGEAASCQLLARDYTGALAVFTRMQRLAREHGSHPVQSLPPPPPPAPQPGPGATPALPAALLPPNSGSAAPSPAALGAFSDVLVRCEVSRVLLLLLLQPPPAKLLPEHAQTLEKYSWEAFDSHGQESSGQLPEELFLLLQSLVMATHEKDTEAIKSLQVEMWPLLTAEQNHLLHLVLQETISPSGQGV [F8A1] | 50.9 °C | 
MPSSLPGSQVPHPTLDAVDLVEKTLRNEGTSSSAPVLEEGDTDPWTLPQLKDTSQPWKELRVAGRLRRVAGSVLKACGLLGSLYFFICSLDVLSSAFQLLGSKVAGDIFKDNVVLSNPVAGLVIGVLVTALVQSSSTSSSIVVSMVAAKLLTVRVSVPIIMGVNVGTSITSTLVSMAQSGDRDEFQRAFSGSAVHGIFNWLTVLVLLPLESATALLERLSELALGAASLTPRAQAPDILKVLTKPLTHLIVQLDSDMIMSSATGNATNSSLIKHWCGTTGQPTQENSSCGAFGPCTEKNSTAPADRLPCRHLFAGTELTDLAVGCILLAGSLLVLCGCLVLIVKLLNSVLRGRVAQVVRTVINADFPFPLGWLGGYLAVLAGAGLTFALQSSSVFTAAVVPLMGVGVISLDRAYPLLLGSNIGTTTTALLAALASPADRMLSALQVALIHFFFNLAGILLWYLVPALRLPIPLARHFGVVTARYRWVAGVYLLLGFLLLPLAAFGLSLAGGMELAAVGGPLVGLVLLVILVTVLQRRRPAWLPVRLRSWAWLPVWLHSLEPWDRLVTRCCPCNVCSPPKATTKEAYCYENPEILASQQL [SLC34A3] | 57.5 °C | 
MWSRLVWLGLRAPLGGRQGFTSKADPQGSGRITAAVIEHLERLALVDFGSREAVARLEKAIAFADRLRAVDTDGVEPMESVLEDRCLYLRSDNVVEGNCADELLQNSHRVVEEYFVAPPGNISLPKLDEQEPFPHS [GATC] |  | 51.7 °C
MRWRTILLQYCFLLITCLLTALEAVPIDIDKTKVQNIHPVESAKIEPPDTGLYYDEYLKQVIDVLETDKHFREKLQKADIEEIKSGRLSKELDLVSHHVRTKLDELKRQEVGRLRMLIKAKLDSLQDIGMDHQALLKQFDHLNHLNPDKFESTDLDMLIKAATSDLEHYDKTRHEEFKKYEMMKEHERREYLKTLNEEKRKEEESKFEEMKKKHENHPKVNHPGSKDQLKEVWEETDGLDPNDFDPKTFFKLHDVNSDGFLDEQELEALFTKELEKVYDPKNEEDDMVEMEEERLRMREHVMNEVDTNKDRLVTLEEFLKATEKKEFLEPDSWETLDQQQFFTEEELKEYENIIALQENELKKKADELQKQKEELQRQHDQLEAQKLEYHQVIQQMEQKKLQQGIPPSGPAGELKFEPHI [NUCB2] | 56.9 °C | 55.5 °C
MASRWWRWRRGCSWKPAARSPGPGSPGRAGPLGPSAAAEVRAQVHRRKGLDLSQIPYINLVKHLTSACPNVCRISRFHHTTPDSKTHSGEKYTDPFKLGWRDLKGLYEDIRKELLISTSELKEMSEYYFDGKGKAFRPIIVALMARACNIHHNNSRHVQASQRAIALIAEMIHTASLVHDDVIDDASSRRGKHTVNKIWGEKKAVLAGDLILSAASIALARIGNTTVISILTQVIEDLVRGEFLQLGSKENENERFAHYLEKTFKKTASLIANSCKAVSVLGCPDPVVHEIAYQYGKNVGIAFQLIDDVLDFTSCSDQMGKPTSADLKLGLATGPVLFACQQFPEMNAMIMRRFSLPGDVDRARQYVLQSDGVQQTTYLAQQYCHEAIREISKLRPSPERDALIQLSEIVLTRDK [PDSS1] | 51.7 °C | 
MPFRLLIPLGLLCALLPQHHGAPGPDGSAPDPAHYRERVKAMFYHAYDSYLENAFPFDELRPLTCDGHDTWGSFSLTLIDALDTLLILGNVSEFQRVVEVLQDSVDFDIDVNASVFETNIRVVGGLLSAHLLSKKAGVEVEAGWPCSGPLLRMAEEAARKLLPAFQTPTGMPYGTVNLLHGVNPGETPVTCTAGIGTFIVEFATLSSLTGDPVFEDVARVALMRLWESRSDIGLVGNHIDVLTGKWVAQDAGIGAGVDSYFEYLVKGAILLQDKKLMAMFLEYNKAIRNYTRFDDWYLWVQMYKGTVSMPVFQSLEAYWPGLQSLIGDIDNAMRTFLNYYTVWKQFGGLPEFYNIPQGYTVEKREGYPLRPELIESAMYLYRATGDPTLLELGRDAVESIEKISKVECGFATIKDLRDHKLDNRMESFFLAETVKYLYLLFDPTNFIHNNGSTFDAVITPYGECILGAGGYIFNTEAHPIDPAALHCCQRLKEEQWEVEDLMREFYSLKRSRSKFQKNTVSSGPWEPPARPGTLFSPENHDQARERKPAKQKVPLLSCPSQPFTSKLALLGQVFLDSS [EDEM2] |  | 55.3 °C
MAAEADGPLKRLLVPILLPEKCYDQLFVQWDLLHVPCLKILLSKGLGLGIVAGSLLVKLPQVFKILGAKSAEGLSLQSVMLELVALTGTMVYSITNNFPFSSWGEALFLMLQTITICFLVMHYRGQTVKGVAFLACYGLVLLVLLSPLTPLTVVTLLQASNVPAVVVGRLLQAATNYHNGHTGQLSAITVFLLFGGSLARIFTSIQETGDPLMAGTFVVSSLCNGLIAAQLLFYWNAKPPHKQKKAQ [MPDU1] | 59.2 °C | 59.2 °C
MAGAGPTMLLREENGCCSRRQSSSSAGDSDGEREDSAAERARQQLEALLNKTMRIRMTDGRTLVGCFLCTDRDCNVILGSAQEFLKPSDSFSAGEPRVLGLAMVPGHHIVSIEVQRESLTGPPYL [NAA38] | 52.4 °C | 52.1 °C
